Source: patent publication US20250340623A1

Key:
Conditions in all cases: remark: other sources report otherwise
[1] = molecular target: monomeric alpha-synuclein, P37840; test: SPR, captured mAb; alpha-synuclein monomers
[2] = molecular target: alpha-synuclein fibrils, P37840; test: SPR, captured mAb
[3] = molecular target: monomeric alpha-synuclein, P37840; test: SPR, captured mAb
[4] = molecular target: alpha-synuclein fibrils, P37840; test: SPR, captured mAb; alpha-synuclein fibrils
[5] = molecular target: monomeric alpha-synuclein, P37840; test: SPR single-cycle kinetics, antibody captured on anti-mouse chip, monomeric alpha-synuclein injected
[6] = molecular target: monomeric alpha-synuclein, P37840; test: SPR, captured mAb; steady-state model
[7] = molecular target: monomeric alpha-synuclein, P37840; test: SPR, captured mAb; heterogeneous ligand model
[8] = molecular target: alpha-synuclein fibrils, P37840; test: SPR single-cycle kinetics, antibody captured on anti-mouse chip, alpha-synuclein fibrils injected

Row | Kd [1] [nM] | koff [2] [s⁻¹] | kon [2] [M⁻¹ s⁻¹] | koff [3] [s⁻¹] | kon [3] [M⁻¹ s⁻¹] | Kd [4] [nM] | Kd [5] [nM] | koff [5] [s⁻¹] | Kd [6] [nM] | koff [7] [s⁻¹] | kon [7] [M⁻¹ s⁻¹] | Kd [8] [nM] | koff [8] [s⁻¹] | Kd [2] [nM] | Binder
1 | 293 | 1.6e-08 | 7310 | 0.0149 | 50800 | 0.002 |  |  |  |  |  |  |  |  | ACI-7079-2603F3-Ab1 (antibody, V domains shown) VH: EVQLVESGGGLVQPKGSLKLSCAASGFTFNTYAMHWVRQAPGKGLEWVARIRSKGSNYATYYADSVKDRFTISRDDSQSMLYLQMNNLKTEDTAMYYCVRGGGDSWFAYWGQGTLVTVSA VL: QIVLTQSPAIMSASPGERVTMTCTASSSVSYMHWYQQKSGTSPKRWIYDTSKLASGVPARFSGSGSGASYTLTISSMEAEDAATYYCQQWNSNPPTFGGGTQLAIK
2 |  | 0.000283 | 176000 |  |  |  | 38.8 | 0.019 | 43.7 | 0.0265 | 55500 | 1.6 | 0.00024 | 2.9 | ACI-7067-1101C8-Ab2 (antibody, V domains shown) VH: EVQLVESGGGLVQPKGSLKLSCAASGFSFNIYAMNWVRQAPGKGLEWVARIRSKSNNYATYYADSVKDRFTISRADSESMLYLQMNNLKTEDTAMYYCVRVGLRFYAMDYWGQGTSVTVSS VL: DVLMTQTPLSLPVSLGDQASISCRSSQSIVHSNGNTYLEWYLQKPGQSPKLLIYKVSNRFSGVPDRFSGSGSGTDFTLKISRVEAEDLGVYYCFQGSQGPLTFGAGTKLELK
3 | 3660 | 0.000998 | 337000 | 0.012 | 3280 | 3 |  |  |  |  |  |  |  |  | ACI-7088-4317A4-Ab1 (antibody, V domains shown) VH: EVQLQQSGAELVRPGASVKLSCTASGFNIKDDYMHWVKQRPEQGLEWIGWIDPENGDTEYASKFQGKATMTADTSSNTAYLQLSSLTSEDTAVYYCKTWGTTQALFPYWGQGTLVTVSA VL: DIVMTQSQKFMYTSVGDRVSITCKASQNVGNAVGWYQQKAGQSPKLLIHSASNRYTGVPDRFTGTGSGTDFTLTINNMQSEDLADYFCQQYRSYPLTFGAGTKLELK
